Consider 5 substances from patent US20080199443A1.

Series [1] relates to Xenopus GDF5 with a T7 epitope tag (GDF5-T7).
Series [2] has as its target Xenopus GDF5 (wild type, full-length open reading frame expressed from injected mRNA) (Xenopus). Description: cell-based or functional assay.

Sequence of Xenopus Furin (P29119 whole entry): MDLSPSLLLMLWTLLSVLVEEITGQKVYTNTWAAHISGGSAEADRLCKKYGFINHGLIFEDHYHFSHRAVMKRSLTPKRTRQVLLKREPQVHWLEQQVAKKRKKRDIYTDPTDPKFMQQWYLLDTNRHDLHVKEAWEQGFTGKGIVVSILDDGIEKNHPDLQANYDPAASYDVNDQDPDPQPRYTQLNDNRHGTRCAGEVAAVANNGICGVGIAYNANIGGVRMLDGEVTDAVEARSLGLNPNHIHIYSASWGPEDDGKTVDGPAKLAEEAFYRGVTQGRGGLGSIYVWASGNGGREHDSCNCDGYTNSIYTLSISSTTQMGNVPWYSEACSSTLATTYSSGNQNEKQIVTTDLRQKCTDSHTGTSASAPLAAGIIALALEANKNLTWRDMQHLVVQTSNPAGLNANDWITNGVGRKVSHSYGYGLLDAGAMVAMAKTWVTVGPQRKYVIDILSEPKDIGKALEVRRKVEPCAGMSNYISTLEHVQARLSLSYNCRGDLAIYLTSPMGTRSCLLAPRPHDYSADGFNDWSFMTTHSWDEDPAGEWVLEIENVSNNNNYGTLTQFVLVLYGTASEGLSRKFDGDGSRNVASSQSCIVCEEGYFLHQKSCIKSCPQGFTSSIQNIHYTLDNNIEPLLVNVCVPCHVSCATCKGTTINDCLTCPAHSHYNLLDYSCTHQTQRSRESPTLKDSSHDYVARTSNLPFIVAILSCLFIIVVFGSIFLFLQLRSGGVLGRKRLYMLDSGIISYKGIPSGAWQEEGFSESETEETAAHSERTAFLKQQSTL

Regarding Xenopus Furin, the “proteolytic processing to the mature peptide; anti-T7 immunoblot of Xenopus oocyte supernatants” value in series [1] was “XGDF5 and Vg1 mature peptides could be detected only when mRNAs encoding both Furin and SPC6 were co-injected with the growth factor messages”.

In series [2], Xenopus Furin (enzyme) returned an Average DAI (Dorso-Anterior Index), ventralization of Xenopus embryos after co-injection of mRNAs of 4.8 DAI; an Average DAI, ventralization of Xenopus embryos; GDF5 mRNA co-injected with Furin and SPC6 mRNAs together of 2.4 DAI.

For the substance Xenopus SPC4 (enzyme), the Average DAI (Dorso-Anterior Index), ventralization of Xenopus embryos after co-injection of mRNAs in series [2] was 4.8 DAI.

Turning to Xenopus SPC6A, the “proteolytic processing to the mature peptide; anti-T7 immunoblot of Xenopus oocyte supernatants” value in series [1] is “XGDF5 and Vg1 mature peptides could be detected only when mRNAs encoding both Furin and SPC6 were co-injected with the growth factor messages”.

For Xenopus SPC6A (enzyme), in series [2], the Average DAI (Dorso-Anterior Index), ventralization of Xenopus embryos after co-injection of mRNAs is 4.9 DAI; the Average DAI, ventralization of Xenopus embryos; GDF5 mRNA co-injected with Furin and SPC6 mRNAs together turned out to be 2.4 DAI.
